For this data set, the system named is O=[N+]([O-])c1ccc(OP(=O)(O)O)cc1. Kind of data set: purified protein.
Setting [1] is: pH 7.5 (20 mM Tris, 150 mM NaCl), 37 °C, 2-8 mM pNPP.

The term Km denotes the substrate concentration at which the rate is half of its maximum. The kcat is the maximal rate divided by the concentration of active sites.

In the case of “rMIP_07528 (rPtpB-MIP, rMIPPtpB) (Mycobacterium intracellulare ATCC 13950)”, under setting [1], the Km stood at 300 µM and the kcat worked out at 0.005 s⁻¹.

With “rPtpB-Mtb (rMTBPtpB) (Mycobacterium tuberculosis H37Rv)”, where the note is “pH 7.5, 37.0 °C”, the Km was 1010 µM.

These data come from paper PMC12108596, “Functional Characterization of MIP_07528 of Mycobacterium indicus pranii for Tyrosine Phosphatase Activity Displays Sensitivity to Oxidative Inactivation and Plays a Role in Immunomodulation” (Biology, 2025).
